To fix the notation:
B1: UBP2, ubiquitin-specific protease 2 (protein, UniProt Q8W4N3 1-961, looked up)
Ubiquitin carboxyl-terminal hydrolase 2: MGKKAKKKARAPTKEIQTMEISKKVSEEPPSQAGEIAEGDVKAVKETQACVHFDKALNLEKVLDKIKSSRQIKCAECNEGVYGKRGTKAKGSKGKKDFSSSDPKSNNKAIWLCLECGCYVCGGVGLPNGPQSHVLRHSRVTRHRLVIQWENPQLRWCFPCQLLLPVEKEDNGEKKDVLSEVVKLIKGRSLNNLASSDIEDQCSGSGSITSDIKLEGAVTSDIEARDGYVVRGLVNLGNTCFFNSIMQNLLSLDRLRDHFLKENGSGVGGPLASSLRKLFTETKPEAGLKSVINPRAFFGSFCSKAPQFRGYDQHDSHELLRCLLDSLSTEESALRKKRGVSDNDEKSTTLIESVFGGETSSIVSCMECGHSSKVYEPFLDLSLPVPFKKSPPKKPQPVSRAKKAKLPPKRVPKNVSKVSKVSKVLPGMVLSELNSSGKSMAVTADSDTSCSSLAPLDNGPVLETPSVLTLDNNQASESASQSDTGFDGSWLDFIGPETSGDETNLDMQEDGIDNVITAEVNQIVPSPNIVANSSVSSGDQTLEGNTERLMQDYEEIAKAEANLDEKDVQAMQSDECPATSGISAEFSQASCIGCDPGIGESSSSVNPWDEEELPLVVADSQILYMPYKEISCNDKSVEGECEASSSFVTGDHEPQNSDFVDFGGLFDEPETTEGPVFGPPSKAEASGVGFMAFSSESDPEEIDDSDLPVSVERCLGHFTKHEILSDDNAWNCENCSKNLKLQRLREKRKSNEDESRSSNTSNGWVKENEDEGFGETEILAVKQDPNDTSCVKDHSSDGRKAARIHSADESESKGTQDEDEDSEKVITVKRDATKKVLINKAPPVLTIHLKRFSQDLRGRLSKLNGHVAFKEVIDLRQYMDSRCSGEDPPVYRLAGLVEHSGTMRGGHYVAYVRGGQRVKETDSSSTAWYNVSDAYVRQVSLEKVLHSEAYILFYERIFSQE
B2: atnudt5, NUDT5, nudix hydrolase homolog 5 (protein, UniProt Q9SJC6 1-302, looked up)
Nudix hydrolase 5: MGLTKNFAFLVFCCQRYCSMDGEAFEISLLDGEEDRFGGTVVNLMEVESMTIGDFDSKLDVSLKAWKDQGKKGIWIKLPSELSSLVDTAIKKGFTYHHAENEYVMLTFWLPEPPSTLPCNASHRIGIGAFVLNKNGEMLVVQENSGYFKDKNVWKVPTGTIKEGESIWAGAVREVKEETDIDAEFVEVLSFMESHQAVWQRKTDIFFVCELEARTFEIQKQDSEIHAAKWMPVEEYVNQPYHNKEGNEMFKLIANICLKRSREKYTGFVLTTNSAKKSLYCSVDHANLLKETADQASTSLSD
B3: SAE2, SUMO-activating enzyme 2 (protein, UniProt Q9SJT1 2-700, looked up)
SUMO-activating enzyme subunit 2: ATQQQQSAIKGAKVLMVGAGGIGCELLKTLALSGFEDIHIIDMDTIEVSNLNRQFLFRRSHVGQSKAKVARDAVLRFRPNINIRSYHANVKNPEFDVDFFKQFDVVLNGLDNLDARRHVNRLCLAADVPLVESGTTGFLGQVTVHIKGKTECYECQTKPAPKTYPVCTITSTPTKFVHCIVWAKDLLFAKLFGDKNQDNDLNVRSNNSASSSKETEDVFERSEDEDIEQYGRKIYDHVFGSNIEAALSNEETWKNRRRPRPIYSKDVLPESLTQQNGSTQNCSVTDGDLMVSAMPSLGLKNPQELWGLTQNSLVFIEALKLFFAKRKKEIGHLTFDKDDQLAVEFVTAAANIRAESFGIPLHSLFEAKGIAGNIVHAVATTNAIIAGLIVIEAIKVLKKDVDKFRMTYCLEHPSKKLLLMPIEPYEPNPACYVCSETPLVLEINTRKSKLRDLVDKIVKTKLGMNLPLIMHGNSLLYEVGDDLDDIMVANYNANLEKYLSELPSPILNGSILTVEDLQQELSCKINVKHRFFSEILNPVLNSVWFLIILPSTFPKLFHFTESRNQDGLSLDIILGFSNVTIRRVLTMFETGRRLTHPLLILFCHREEFDEEKEPEGMVLSGWTPSPATNGESASTSNNENPVDVTESSSGSEPASKKRRLSETEASNHKKETENVESEDDDIMEVENPMMVSKKKIRVE
B4: CLIP-associated protein (protein, UniProt Q8RWY6 1-1439, looked up)
CLIP-associated protein: MEEALEMARAKDTKERMAAVERLHQLLEASRKSLSPAEVTSLVDSCLDLLKDSNFRVSQGALQALASAAVLAGEHLKLHLNALVPAVVERLGDSKQPVRDAARRLLTTLMEVSSPTIIVERAGSYAWMHKSWRVREEFARTVTSAIGLFASTELPLQRVILAPILQMLNDPNQAVREAAILCIEEMYMQGGSQFREELQRHHLPSYMVKDINARLERIEPQLRSTDGRSAHHVVNEVKASSVNPKKSSPRAKAPTRENSLFGGDADITEKPIEPIKVYSEKELIREFEKIAATLVPEKDWSMRISAMRRVEGLVAGGATDYSCFRGLLKQLVGPLSTQLADRRSTIVKQACHLLCLLSKELLGDFEACAETFIPVLFKLVVITVLVIAESADNCIKTMLRNCKAARVLPRIAESAKHDRNAILRARCCEYALLTLEHWPDAPEIQRSVDLYEDLIRCCVADAMSEVRATARMCYRMFAKTWPDRSRRLFSSFDPVIQRLINEEDGGIHRRHASPSVRERHSQPSFSQTSAPSNLPGYGTSAIVAMDRSSNLSSGGSLSSGLLLSQSKDVNKGSERSLESVLQSSKQKVSAIESMLRGLHISDRQNPAALRSSSLDLGVDPPSSRDPPFHAVAPASNSHTSSAAAESTHSINKGSNRNGGLGLSDIITQIQASKDSGRSSYRGNLLSESHPTFSSLTAKRGSERNERSSLEESNDAREVRRFMAGHFDRQQMDTAYRDLTFRESNASHVPNFQRPLLRKNVGGRMSAGRRRSFDDSQLQIGDISNFVDGPASLNEALNDGLNSSSDWCARVAAFNFLQTLLQQGPKGAQEVIQSFEKVMKLFLRHLDDPHHKVAQAALSTLADLIPSCRKPFESYMERVLPHVFSRLIDPKEVVRQPCSSTLEIVSKTYSVDSLLPALLRSLDEQRSPKAKLAVIEFAINSFNRYAGNPEISGNSGILKLWLAKLTPLTRDKNTKLKEASITCIISVYNHYDSAGLLNYILSLSVEEQNSLRRALKQYTPRIEVDLLNYMQSKKEKQRIKSYDPSDAIGTSSEEGYAGASKKNIFLGRYSGGSIDSDSGRKWSSSQEPTMITGGVGQNVSSGTQEKLYQNVRTGISSASDLLNPKDSDYTFASAGQNSISRTSPNGSSENIEILDDLSPPHLEKNGLNLTSVDSLEGRHENEVSRELDLGHYMLTSIKVNTTPESGPSIPQILHMINGSDGSPSSSKKSGLQQLIEASVANEESVWTKYFNQILTVVLEVLDDEDFSIKELALSLISEMLKSQKDAMEDSVEIVIEKLLHVSKDTVPKVSTEAEQCLTTVLSQYDPFRCLSVIVPLLVTEDEKTLVACINCLTKLVGRLSQEELMDQLSSFLPAVFEAFGSQSADVRKTVVFCLVDIYIMLGKAFLPYLEGLNSTQVRLVTIYANRISQARNGAPIDADT
B5: UBP14, ubiquitin-specific protease 14 (protein, UniProt Q8L6Y1 1-797, looked up)
Ubiquitin carboxyl-terminal hydrolase 14: MELLRSNLSRVQIPEPTHRIYKHECCISFDTPRSEGGLFVDMNSFLAFGKDYVSWNYEKTGNPVYLHIKQTRKSIPEDRPLKKPTLLAIGVDGGFDNNEPEYEESYSIVILPDFVSLPFPSVELPEKVRIAVDTVVNAVGAERKEQVAAWTAEKKLISEHALTLQQIKSGIVIPPSGWKCSKCDKTENLWLNLTDGMILCGRKNWDGTGGNNHAVEHYKETAYPLAVKLGTITADLEAADVYSYPEDDSVLDPLLAEHLAHFGIDFSSMQKTEMTTAERELDQNTNFDWNRIQESGKELVPVFGPGYTGLVNLGNSCYLAATMQIVFSTHSFISRYFSHQSLKMAFEMAPADPTLDLNMQLTKLGHGLLSGKYSMPATQKDATTGDPRQEGIPPRMFKNVIAASHAEFSSMRQQDALDFFLHLVGKVERASNTTPDLDPSRSFKFGIEEKILCPSGKVGYNKREDCILSLNIPLHEATNKDELEAFHKQKAGKGLEENDMRSSDEIVRPRVPLEACLANFASSEPIEDYYSSALKGMTTAIKTTGLTSFPDYLVLHMRKFVMEEGWVPKKLDVYIDVPDVIDISHMRSKGLQPGEELLPDGVPEEVMESAQPVANEEIVAQLVSMGFSQLHCQKAAINTSNAGVEEAMNWLLSHMDDPDIDAPISHQTSDIDQSSVDTLLSFGFAEDVARKALKASGGDIEKATDWVFNNPNASVSDMDVSSSNSAQTPAQSGLPDGGGKYKLFGIVSHMGTSVHCGHYVAHILKEGRWVIFNDDKVGISTDPPKDMGYVYFFQRLD

From patent publication US20230227838A1, “ENHANCED CELL SURVIVAL AGAINST BIOTIC AND ABIOTIC STRESSES THROUGH SALICYLICK ACID-INDUCED NPR1 CONDENSATES” (priority 2020, published 2023) come the findings set out here.

The target of this assay is sim3-GFP (Arabidopsis thaliana) (UniProt P93002). Briefly: sim3-GFP IP, LC-MS/MS.
Sequence of sim3-GFP (Arabidopsis thaliana) (P93002 other isoform, or with tags, fused parts or gaps): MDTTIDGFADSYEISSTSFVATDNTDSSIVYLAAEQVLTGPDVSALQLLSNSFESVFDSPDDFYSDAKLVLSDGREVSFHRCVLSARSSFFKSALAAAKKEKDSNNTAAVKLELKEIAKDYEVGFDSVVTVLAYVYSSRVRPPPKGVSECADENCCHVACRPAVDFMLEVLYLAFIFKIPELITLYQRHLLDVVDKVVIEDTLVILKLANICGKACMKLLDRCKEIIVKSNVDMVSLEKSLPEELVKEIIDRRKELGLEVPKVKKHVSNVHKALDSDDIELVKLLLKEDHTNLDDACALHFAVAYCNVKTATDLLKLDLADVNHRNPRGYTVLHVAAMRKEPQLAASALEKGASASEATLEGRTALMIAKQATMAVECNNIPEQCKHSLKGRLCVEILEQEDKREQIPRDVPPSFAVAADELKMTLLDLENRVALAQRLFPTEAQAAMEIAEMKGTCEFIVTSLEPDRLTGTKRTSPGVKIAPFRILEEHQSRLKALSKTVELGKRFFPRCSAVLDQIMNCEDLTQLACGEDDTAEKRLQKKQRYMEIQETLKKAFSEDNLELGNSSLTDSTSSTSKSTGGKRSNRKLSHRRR
B1 gave a Normalized Fold Change: SA vs Mock of 2.31 fold.
In the case of B2 it was 44.1 fold; in that of B3, 5.82 fold; in that of B4, 2550 fold.
Take B5: the Normalized Fold Change: SA vs Mock came out at 5.02 fold.
